Test results: patent publication US20110319338A1, “PEPTIDES THAT BIND EUKARYOTIC TRANSLATION INITIATION FACTOR 4E” (The Board of Regents of the University of Texas System, priority 2008, published 2011)
Square brackets hold non-standard residues; d marks the D form. Ends that are not written are not given here.

Columns and labels:
eIF4E = biological target: T1, eIF4E (Homo sapiens, UniProt P06730); experiment: Streptavidin-agarose pull-down of biotinylated peptide from OVCAR-3 cell lysate, Western blot with eIF4E antibody; format: binding; conditions: biotinylated peptide 3 micromoles per liter, 250 micrograms OVCAR-3 cell lysate
T1 construct: endogenous in cells; host or cells: OVCAR-3 cell lysate
Description: (§1) FIGS. 1A-1G. 4EBP peptides bind eIF4E and inhibit binding of eIF4E to eIF4G. (FIG. 1A) Sequences of peptides comprising residues 49 to 68 of 4EBP1 and 4EBP2. (FIG. 1B) Biotinylated peptides (3 micromoles per liter) were incubated with 250 micrograms of OVCAR-3 cell lysate. Peptides were pulled-down using streptavidin-agarose. Precipitates (P) and supernatants (S) were analyzed by Western blot using eIF4E antibody. In (FIG. 1C), immunoprecipitation was performed using eIF4E antibody, and Western blot performed using eIF4G antibody. (FIG. 1D) Sequences of wild-type and mutant 4EBP peptides fused to TAT (mutant residues are highlighted). (FIG. 1E) OVCAR-3 cells were treated with biotinylated peptides (3 micromoles per liter, final concentration) for 16 hours. Internalized peptides were detected by staining fixed cells with Texas Red-conjugated streptavidin. Nuclei were visualized by staining with 4′,6-Diamidino-2-Phenylindole (DAPI). (FIGS. 1F and 1G) OVCAR-3 cell lysates were incubated with peptides as described for FIG. 1B. In (FIG. 1F), immunoprecipitation was performed using streptavidin-agarose and Western blot performed using eIF4E antibody. In (FIG. 1G), immunoprecipitation was performed using eIF4E antibody, and Western blot performed using eIF4G antibody.
(§2) FIGS. 3A-3H. Uptake, binding and inhibitory effects of [DLys6]GnRH-4EBP fusion peptides. (FIG. 3A) Sequences of [DLys6]GnRH, and wild-type and mutant 4EBP1 peptides fused to the agonist. (FIG. 3B) Western blot of GnRH-RI levels in OVCAR-3, ES-2, MDA-MB-231, BJ, HUVEC and SKOV3 cells. (FIG. 3C) Detection of biotinylated peptides in OVCAR-3 and SKOV3 by Texas Red-conjugated streptavidin at 16 hours after peptide addition (3 micromoles per liter). In (FIGS. 3D and 3E), biotinylated peptides were incubated with OVCAR-3 cell lysate as described in FIG. 1. In (FIG. 3D), peptide was pulled down using streptavidin-agarose. Precipitates (P) and supernatants (S) were analyzed by Western blot using eIF4E antibody. In (FIG. 3E), immunoprecipitation was performed using eIF4E antibody, and Western blot performed using eIF4G antibody. (FIG. 3F) R-Luc and F-Luc activities were assayed in ES-2-DualLuc cells at 6 hours after addition of the indicated concentrations of peptides, and are expressed relative to the respective luciferase activities in cells incubated without peptide. Shown are results of triplicate assays performed independently two times, and the statistical significance of differences in relative R-Luc and F-Luc activities in cells treated with peptide at a concentration of 10 micromoles per liter (FIG. 3G) Cells of GnRH-RI-positive and -negative lines were treated with the indicated concentrations of peptides. […]

[1] = biological target: T2, eIF4E in SKOV3+GnRH-RI cells (Homo sapiens, UniProt P06730); experiment: Pull-down of peptide from lysates of peptide-treated cells, Western blot with eIF4E antibody; format: cell-based; conditions: 10 micromoles per liter, 24 hours
T2 construct: endogenous in cells; host or cells: SKOV3 cells stably transfected with human GnRH-RI (eIF4E itself is not transfected)
Description: FIGS. 8A-8D. Effect of [DLys6] GnRH-4EBP1 peptide in SKOV3 cells stably expressing GnRH-RI. (FIG. 8A) Western blot analysis of GnRH-RI in parental SKOV3 cells and SKOV3 cells transfected with GnRH-RI. In (FIG. 8B), SKOV3+GnRH-RI cells were treated with biotinylated peptides at a final concentration of 10 micromoles per liter or incubated without peptide. At 24 hours after treatment, lysates were prepared from cells. Peptide was pulled-down using streptavidin-agarose. Precipitates and supernatants were analyzed by Western blot using eIF4E antibody. (FIG. 8C) parental SKOV3, SKOV3+GnRH-RI and ES-2 cells were treated with the indicated peptides (10 micromoles per liter) or incubated without peptide. At 24 hours after treatment, lysates were prepared from cells. Immunoprecipitation was performed using eIF4E antibody, and Western blot of precipitates was performed using eIF4G antibody. Western blot of whole cell lysates of treated cells was performed using antibodies to eIF4G, eIF4E and actin. (FIG. 8D) TUNEL-staining of parental SKOV3 and SKOV3+GnRH-RI cells at 3 days following treatment with peptide at a final concentration of 30 micromoles per liter.
Immunoprecipitation (IP) and Western blotting. Biotinylated peptides were incubated with 250 micrograms of cell lysate at a final concentration of 3 micromoles per liter for 6 hours at 4° C. […]

[2] = biological target: T3, binding of eIF4E to eIF4G (Homo sapiens, UniProt P06730); experiment: Immunoprecipitation with eIF4E antibody and Western blot with eIF4G antibody, OVCAR-3 cell lysate incubated with peptide; conditions: peptide 3 micromoles per liter, 250 micrograms OVCAR-3 cell lysate
T3 construct: endogenous in cells; host or cells: OVCAR-3 cell lysate
Description: as §1, §2

T3 sequence (P06730 2-217 limits assumed): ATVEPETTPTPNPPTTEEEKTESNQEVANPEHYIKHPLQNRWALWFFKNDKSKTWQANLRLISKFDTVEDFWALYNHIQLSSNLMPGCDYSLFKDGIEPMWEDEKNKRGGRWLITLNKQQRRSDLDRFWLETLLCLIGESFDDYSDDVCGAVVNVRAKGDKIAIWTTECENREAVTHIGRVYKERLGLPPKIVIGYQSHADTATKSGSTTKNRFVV
T1 sequence (P06730 whole entry): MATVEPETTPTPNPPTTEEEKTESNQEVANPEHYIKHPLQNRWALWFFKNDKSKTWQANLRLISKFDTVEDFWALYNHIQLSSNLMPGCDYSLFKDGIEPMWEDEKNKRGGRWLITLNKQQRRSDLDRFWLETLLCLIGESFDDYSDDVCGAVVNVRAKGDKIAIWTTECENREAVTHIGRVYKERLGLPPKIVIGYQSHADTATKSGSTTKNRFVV
T2 sequence (P06730 whole entry): as above

Substance: [DLys6]GnRH: GnRH agonist with a D-amino acid substitution at position 6; GnRH-RI-targeting moiety (QHWSY[dK]LRPG; not fully specified (residue 1, C-terminus); ends and bridges not checked)
- binding of peptide to eIF4E (eIF4E): did not bind
- binding of peptide to eIF4E in treated cells [1]: neither mutant peptide nor [DLys6]GnRH alone bound eIF4E
- inhibition of eIF4E binding to eIF4G [2]: not inhibited
